Kd data for one substance are collected here from PMC9157036.

For the test, the target named is ferritin-based 24-meric nanoparticle with N-terminal protein A tag. Nature of the test: SPR. The note with it: Fc fusion.

Substance “RBD (residues 331aa-524aa) of the SARS-CoV-2 Omicron spike protein with an Fc tag in the C-terminus (from UniProt P0DTC2 331-524)” showed a Kd of 187 nM.
